According to PMC8382915:

Key:
[1] = molecular target: Bacteroidetes bacterium GWA2_30_7 CuZn superoxide dismutase (BbCuZnSOD) (Bacteroidetes bacterium GWA2_30_7); assay: SEC-MALS; size-exclusion chromatography coupled static light scattering (SEC-SLS), masses from refractive index; 20 mM Tris-HCl pH 7.4, 150 mM NaCl
[2] = molecular target: Rickettsiales bacterium TMED131 CuZn superoxide dismutase (RbCuZnSOD) (Rickettsiales bacterium TMED131); assay: as above

stoichiometry N [1] | Substance | stoichiometry N [2]
2 | Bacteroidetes bacterium GWA2_30_7 CuZn superoxide dismutase (BbCuZnSOD) (enzyme) | 
 | Rickettsiales bacterium TMED131 CuZn superoxide dismutase (RbCuZnSOD) (enzyme) | 2
